The source of these data is patent publication US20230357367A1.

What all share (assay): cell-based or functional assay
Test [1] concerns the target SARS-CoV-2 Omicron BA.4/5+K444T Spike on pseudovirus (SARS-CoV-2).
For test [2], the target named is spike (SARS-CoV-2, D614G) (SARS-CoV-2) (UniProt P0DTC2).
The target is the same in test [3]. The source holds these as a separate data set.
The target is the same in test [4]. The source holds these as a separate data set.
Test [5] has the same target. This is another data set of the same source.
The target in test [6] is spike (SARS-CoV-2, BA.5.8 P1162L) (SARS-CoV-2).
Test [7] concerns the target spike (SARS-CoV-2, BA.1.1 P1162S) (SARS-CoV-2).
Test [8] addresses spike (SARS-CoV-2, D614G) (SARS-CoV-2) (UniProt P0DTC2). The source holds these as a separate data set.

Where two headings read alike, the source gives them in different places.

For the substance Bebtelovimab (antibody), the Neutralization - IC50, pseudovirus in test [1] came to 1220 ng/mL.

On to sotrovimab VH/VL-hamIgG2a (antibody), for which the EC50, pseudovirus neutralization, Vero E6 in test [2] came to 8.51 ng/mL.

For the substance sotrovimab VH/VL-huIgG1 (antibody), the EC50, pseudovirus neutralization, Vero E6 in test [2] is 27.9 ng/mL.

In test [3], bebtelovimab (antibody) had an EC80, pseudovirus neutralization, Vero E6, with isotype of 2.9 ng/mL. The EC50, pseudovirus neutralization, Vero E6, with isotype in test [4] is 0.29 ng/mL. In addition, the Emax, pseudovirus neutralization, Vero E6, with isotype (% neutralization) in test [5] is 99.7. Further, in test [6], the EC50, pseudovirus neutralization was 0.13 ng/mL; the EC80, pseudovirus neutralization came out at 1.1 ng/mL; the EC90, pseudovirus neutralization turned out to be 3.7 ng/mL; the Emax, pseudovirus neutralization (% neutralization) is 99.9. In addition, in test [2], the EC50, pseudovirus neutralization stood at 0.57 ng/mL; the EC50, pseudovirus neutralization, TMPRSS2-Vero E6, with isotype was determined as 1.7 ng/mL; the EC50, pseudovirus neutralization, Vero E6, with isotype came to 0.64 ng/mL; the EC80, pseudovirus neutralization stood at 4.9 ng/mL. In test [2], the EC80, pseudovirus neutralization, TMPRSS2-Vero E6, with isotype worked out at 11 ng/mL; the EC80, pseudovirus neutralization, Vero E6, with isotype worked out at 2.7 ng/mL; the EC90, pseudovirus neutralization amounted to 18 ng/mL; the EC90, pseudovirus neutralization, TMPRSS2-Vero E6, with isotype was 32 ng/mL. In test [2], this substance yielded an EC90, pseudovirus neutralization, Vero E6, with isotype of 6.1 ng/mL; an Emax, pseudovirus neutralization (% neutralization) of 99.9; an Emax, pseudovirus neutralization, TMPRSS2-Vero E6, with isotype (% neutralization) of 99.4; an Emax, pseudovirus neutralization, Vero E6, with isotype (% neutralization) of 99.4. Also, in test [7], the EC50, pseudovirus neutralization turned out to be 0.12 ng/mL; the EC80, pseudovirus neutralization was determined as 1.4 ng/mL; the EC90, pseudovirus neutralization came out at 6 ng/mL; the Emax, pseudovirus neutralization (% neutralization) stood at 100. Besides, the EC90, pseudovirus neutralization, Vero E6, with isotype in test [8] turned out to be 11 ng/mL.

With “Sotrovimab VH/VL (human IgG1 molecule expressing the same variable regions of Sotrovimab) (antibody)”, the Neutralization - IC50, pseudovirus in test [1] amounted to 304 ng/mL.

In test [3], sotrovimab VH/VL-huIgG1-LS (antibody) had an EC80, pseudovirus neutralization, Vero E6, with isotype of 69 ng/mL. For the same substance, the EC50, pseudovirus neutralization, Vero E6, with isotype in test [4] was 14 ng/mL. This substance also had an Emax, pseudovirus neutralization, Vero E6, with isotype (% neutralization) in test [5] of 98.3. This substance registered an EC50, pseudovirus neutralization, Vero E6 in test [2] of 35.2 ng/mL. Further, the EC90, pseudovirus neutralization, Vero E6, with isotype in test [8] was found to be 170 ng/mL.
